Reference: article PMC8040518 (The Journal of Experimental Medicine, 2021)

Biological target: LGTV E protein (strain TP21) in C-prM-E–transfected HEK-293T cells (Langat virus strain TP21, UniProt Q9IG40)
Assay: cell-based or functional assay

B1: POWV-80 mAb (antibody, V domains shown)
VH: EVKLVESEGGLVQPGSSMKVSCTASGFTFSHYYMAWVRQVPEKGLEWVANINYDGTSTYYLDSLKSRFIISRDNANNILYLQMSSLKSEDTAIYYCAREEGYGNPYPYWYFDVWGTGTTVTVSS
VL: QIVLTQSPAILSASPGEKVTMTCRASSSVSYMHWYQQKPGSSPKSWIYATSNLASGVPTRFSGSGSGTSYSLTISRVEAEDAATYYCQQRSSNPRTFGGGTKLEIK
B1 was tested, and the “EC50 of neutralization of LGTV, FRNT in Vero cells” value was 10.4 µg/mL.
